Test results reported in the DeepSol protein solubility set.

test: soluble on expression in E. coli; label from the status in PepcDB or PDB records

Row | Sequence | soluble on expression in E. coli
1 | MREKELKHIENLLLLKVKKEKIEETDKIKEYLKRFEDERRFDGIKESTIKSDLDRLRVFLDYCINYLGKNPEELKTSDFVKFFNYLDTVRKVSKSSQRKYFLLLKVFYRVLRMYNVIQEFVEESKDRKRFARIEIQHYDAVDAEMLNMILKKIIESGSRTRIRDALIIRLLWDTGCRVSEVLNLKYKDCDLDNGIFKIRNTKTHEERTVVCSSDTLELLRNYVQFNVRQGSDDYLFQNSQGGRVRKEWISEVFRKAVNELKEEGKIPKNRRIVIHSIRHGRAVDLLNKGVPIDIVKEYLGHKSMNTTLIYAHSKERAESLEFIKKLLRIQ | not soluble
2 | MREYKVVVLGSGGVGKSALTVQFVTGTFIEKYDPTIEDFYRKEIEVDSSPSVLEILDTAGTEQFASMRDLYIKNGQGFILVYSLVNQQSFQDIKPMRDQIVRVKRYEKVPLILVGNKVDLEPEREVMSSEGRALAQEWGCPFMETSAKSKSMVDELFAEIVRQMNYSSLPEKQDQCCTTCVVQ | not soluble
3 | MRFAVLGSGSQGNGTLIASGDTFILVDCGFSLRETERRLALLGVSAAQLSAVLVTHEHADHVHGVGLLSRRYNVPVYLSQGTLRGMRKPVEVAGFLACGQSLHIGSLEVTAARVEHDAYEPLQYVVSDGKRRFGMLTDLGSYDALLLERYQGLDALLIEANHCRDLLARGHYPAFLKQRVGGMQGHLNNHQAARLVHELGWNNLQHLVLAHLSSKNNLPHLARQCFVDTLGCDPDWLQVANQEHGLDWREIALEHHHHHH | soluble
4 | MRFAVLGSGSRGNGTLVASNDTYVLVDCGFSLRETERRLARLGVAASQLSAILVTHEHADHVHGVGLLSRRYNVPVYLSSGTLRGMRKPVEVAGLLAGGESLQIGALDIDVVSVAHDALEPTQFVFSDGSRRFGLLTDLGSYCSNVLQRYQGLDALMIEANHCRDMLARGQYPVFLKQRVGCETGHLNNHQAASLVSELGWQDLQHLVLAHLSSKNNLPHLARQCFVDTLGCDPDWLQLADQDSGLDWRHIALEHHHHHH | not soluble
5 | MRGFLKFAILAAVLLALAYGDDEDEEASELERRRIRNCPEVTFKRMTGCVWEFGRFLKKVLFLDLEQRTLDRFRKSCLSMAECFDLIECKETGKFSRGKRIKDSCDVMNYLSKDFVPCLKRLERLDPAPTCFNKWKPFSDLNEVGPDTTPEEMEELCKNMLGKDNCMKDLVSRTCGGVMSQELVDRFEATSVFKQCDAD | not soluble
6 | MRGSHHHHHHGMASMTGGQQMGRDLYDDDDKDRWIRTGGYQPTLWDFSTIQSFDSEYKEEKHLMRAAGMIDQVKMMLQEEVDSIRRLELIDDLRRLGISCHFEREIVEILNSKYYTNNEIDERDLYSTALRFRLLRQYDFSVSQEVFDCFKNAKGTDFKPSLVDDTRGLLQLYEASFLSAQGEETLRLARDFATKFLQKRVLVDKDINLLSSIERALELPTHWRVQMPNARSFIDAYKRRPDMNPTVLELAKLDFNMVQAQFQQELKEASRWWNSTGLVHELPFVRDRIVECYYWTTGVVERRQHGYERIMLTKINALVTTIDDVFDIYGTLEELQLFTTAIQRWDIESMKQLPPYMQICYLALFNFVNEMAYDTLRDKGFDSTPYLRKVWVGLIESYLIEAKWYYKGHKPSLEEYMKNSWISIGGIPILSHLFFRLTDSIEEEAAESMHKYHDIVRASCTILRLADDMGTSLDEVERGDVPKSVQCYMNEKNASEEEAREHVRSLIDQTWKMMNKEMMTSSFSKYFVEVSANLARMAQWIYQHESDGFGMQHSLVNKMLRDLLFHRYE | soluble
7 | MRGSHHHHHHGSEYPERPVNMVVPFAAGGPTDNVARSLAESMRPTLGETVVVENKGGAGGTIGTTQVARAQPDGYSILLMHAGFSTAPSLYKNPGYEPYTSFEPIGLVVDVPMTIIARGDFPPNNIKELAEYVKKNADKISLANAGIGAASHLCGTMLVEALGVNLLTIPYKGTAPAMNDLLGKQVDLMCDQTTNTTQQITSGKVKAYAVTSLKRVPTLPDLPTMDESGYKGFEVGIWHGMWAPKGTPKPVVDKLVKSLQAGLADPKFQERMKQLGAEVLTNEANPEALQAKVKQQVPQWAELFKKAGVEKQ | soluble
8 | MRGSHHHHHHGSMEEYYMKLALDLAKQGEGQTESNPLVGAVVVKDGQIVGMGAHLKYGEAHAEVHAIHMAGAHAEGADIYVTLEPCSHYGKTPPCAELIINSGIKRVFVAMRDPNPLVAGRGISMMKEAGIEVREGILADQAERLNEKFLHFMRTGLPYVTLKAAASLDGKIATSTGDSKWITSEAARQDAQQYRKTHQSILVGVGTVKADNPSLTCRLPNVTKQPVRVILDTVLSIPEDAKVICDQIAPTWIFTTARADEEKKKRLSAFGVNIFTLETERIQIPDVLKILAEEGIMSVYVEGGSAVHGSFVKEGCFQEIIFYFAPKLIGGTHAPSLISGEGFQSMKDVPLLQFTDITQIGRDIKLTAKPTKE | soluble
9 | MRGSHHHHHHGSMSQPDATPFDYILSGGTVIDGTNAPGRLADVGVRGDRIAAVGDLSASSARRRIDVAGKVVSPGFIDSHTHDDNYLLKHRDMTPKISQGVTTVVTGNCGISLAPLAHANPPAPLDLLDEGGSFRFARFSDYLEALRAAPPAVNAACMVGHSTLRAAVMPDLRREATADEIQAMQALADDALASGAIGISTGAFYPPAAHASTEEIIEVCRPLITHGGVYATHMRDEGEHIVQALEETFRIGRELDVPVVISHHKVMGKLNFGRSKETLALIEAAMASQDVSLDAYPYVAGSTMLKQDRVLLAGRTLITWCKPYPELSGRDLEEIAAERGKSKYDVVPELQPAGAIYFMMDEPDVQRILAFGPTMIGSDGLPHDERPHPRLWGTFPRVLGHYSRDLGLFPLETAVWKMTGLTAAKFGLAERGQVQPGYYADLVVFDPATVADSATFEHPTERAAGIHSVYVNGAAVWEDQSFTGQHAGRVLNRAGA | soluble
10 | MRGSHHHHHHLVPRGSVQVISSYDQFKQVTGGDKVVVIDFWATWCGPCKMIGPVFEKISDTPAGDKVGFYKVDVDEQSQIAQEVGIRAMPTFVFFKNGQKIDTVVGADPSKLQAAITQHSA | soluble
11 | MRGSHHHHHHTDPALRAPIIQSVERALQILDLFNEQATELKITDISKLMGLSKSTLHSLLKTLQLHGYIDQNPENGKYRLGMKLVERGHFVVGSIDIRQKAKGWLTELSRRTGQTTHLGILDGREGVYIEKIEGKLAAIAYSRIGRRLPVHATAIGKVLIAWLGEAELNALLEGYQYTTFTPATLASREALMSALAQTREQGYALDSEENEQGVRCVAVPVWNHESRVIAALSLSTLTSRVDDAELANFREQLQQAGLALSRALGYPAGLCGR | soluble
12 | MRGSHHHHHHTDPALRASVKVIVTDMDGTFLNDAKTYNQPRFMAQYQELKKRGIKFVVASGNQYYQLISFFPELKDEISFVAENGALVYEHGKQLFHGELTRHESRIVIGELLKDKQLNFVACGLQSAYVSENAPEAFVALMAKHYHRLKPVKDYQEIDDVLFKFSLNLPDEQIPLVIDKLHVALDGIMKPVTSGFGFIDLIIPGLHKANGISRLLKRWDLSPQNVVAIGDSGNDAEMLKMARYSFAMGNAAENIKQIARYATDDNNHEGALNVIQAVLDNTSPFNSGLCGR | soluble
13 | MRGTDMAKQQMNIKIKKGEQFPVTIQRIGINGEGVGYFQKQVVFVPGALPGEEVIVEATDIHPTYAEAKIKRIRKRSPNRIKPPCPLYDQCGGCQLQHLSYEAQLEAKRDIVIQALRRHARRLDVDKLDIRPTIGMDNPWHYRNKSQFQVGMKEGKVLAGLYGINSHRLIDLSECRVQHPQTTRVTNIVKTILQDLRIPIYNERTRTGVVRTIVVRVGFHTGDIQLVLVTATKDIPRKQLLIDEIRRRLPEVKSIVQNINGEKTSLIFGDETEVLAGDEYIQETLGDLSFELSSRAFFQLNPLQTVKLYDEVKKAAALTGTERIVDAYCGVGTIGLWLARDAKEVRGMDTIPEAIEDAQNNAKKHGFTNTHYVVGKAEYWLPKWVKGGWKPDVIIVDPPRVGCDRALLETILHVRPKTVVYVSCNPSSLARDLDALAAQYRVDYIQPVDMFPHTAHVECVAKVRLEL | not soluble
14 | MRICSDQPCIVLLTEKDVWIRVNGKEPISLKANHMALLNCENNIIDVSSLNNTLVAHISHDIIKDYLRFLNKDLSQIPVWQRSATPILTLPCLTPDVFRVAAQHSMMPAETESEKERTRALLFTVLSRFLDSKKFVSLMMYMLRNCVSDSVYQIIESDIHKDWNLSMVASCLCLSPSLLKKKLKSENTSYSQIITTCRMRYAVNELMMDGKNISQVSQSCGYNSTSYFISVFKDFYGMTPLHYVSQHRERTVA | soluble
15 | MRIEVRLFALYREQAGTDRLALELPEGARVREAQKALEERFPRLRLEGGMAAVNQALAGAETPLKEGDEVAFLPPVSGGQDSYGLTQEPLDLEALVAWATAPEYGAVVSFLGTTRSPNRGEEVAFLEYEAYPEMAEKVMAEILAEMRARWPLGRIALWHRLGRVDPGEASIAIVVSARHRKEAFAACQYAIDRVKQILPVWKKEHRKDGSFWVEGFAPEDKRL | soluble
16 | MRILADENIPVVDAFFADQGSIRRLPGRAIDRAALAEVDVLLVRSVTEVSRAALAGSPVRFVGTCTIGTDHLDLDYFAEAGIAWSSAPGCNARGVVDYVLGCLLAMAEVRGADLAERTYGVVGAGQVGGRLVEVLRGLGWKVLVCDPPRQAREPDGEFVSLERLLAEADVISLHTPLNRDGEHPTRHLLDEPRLAALRPGTWLVNASRGAVVDNQALRRLLEGGADLEVALDVWEGEPQADPELAARCLIATPHIAGYSLEGKLRGTAQIYQAYCAWRGIAERVSLQDVLPETWLAGLQLNPGCDPAWALATLCRAVYDPRSDDAAFRRSLTGDSATRRAAFDALRKHYPPRREITGLRVATGGQAELQRVVRALGAQLV | soluble
17 | MRILHTADWHLGKTLEGRSRLSEQADVLDELNTIVKDEQIDAIVMAGDAFDTVNPPALAEQLFYESLSALSDRGKRPIVVIAGNHDNPDRLSAASPLTHENGIHLIGYPTTEPIHIEVPSAGELLAVGALAYPSEARLNEVLSDTFDEKLLRDHYDVKIRQAFEHMTSRFRTDAVKIAASHIYVAGGNQTDSDGPIEVGGAYTVAAESLPADAAYVALGHLHRPQTIKRARTLARYSGSPLAYSFSEAGYAKSVTIVDAKPGEEATWQEVLLSSGKPLVKWKAANGLSEVYSWLDEGRDQNAWIDLEIRVADQLSLEEIHRLRKAHPGFIHIRPVFEEQNKDRERIEVKHVSIEDRFKKFYEKQTGGAVPDEEMVRLFLELASGVEEEDAK | not soluble
18 | MRILKIYENKGVYKVVIGEPFPPIEFPLEQKISSNKSLSELGLTIVQQGNKVIVEKSLDLKEHIIGLGEKAFELDRKRKRYVMYNVDAGAYKKYQDPLYVSIPLFISVKDGVATGYFFNSASKVIFDVGLEEYDKVIVTIPEDSVEFYVIEGPRIEDVLEKYTELTGKPFLPPMWAFGYMISRYSYYPQDKVVELVDIMQKEGFRVAGVFLDIHYMDSYKLFTWHPYRFPEPKKLIDELHKRNVKLITIVDHGIRVDQNYSPFLSGMGKFCEIESGELFVGKMWPGTTVYPDFFREDTREWWAGLISEWLSQGVDGIWLDMNEPTDFSRAIEIRDVLSSLPVQFRDDRLVTTFPDNVVHYLRGKRVKHEKVRNAYPLYEAMATFKGFRTSHRNEIFILSRAGYAGIQRYAFIWTGDNTPSWDDLKLQLQLVLGLSISGVPFVGCDIGGFQGRNFAEIDNSMDLLVKYYALALFFPFYRSHKATDGIDTEPVFLPDYYKEKVKEIVELRYKFLPYIYSLALEASEKGHPVIRPLFYEFQDDDDMYRIEDEYMVGKYLLYAPIVSKEESRLVTLPRGKWYNYWNGEIINGKSVVKSTHELPIYLREGSIIPLEGDELIVYGETSFKRYDNAEITSSSNEIKFSREIYVSKLTITSEKPVSKIIVDDSKEIQVEKTMQNTYVAKINQKIRGKINLE | soluble
19 | MRILSLILWIAAIVLPVHSASAAPVKMTIVLERQYLDGEMSEEKVTETVDSMTEIWKKYRGWQLVTLDDQTIVFRKTINDISPLLKTNGYFGITDDGTLSIFNGKPDRSSEIIQSFFQIDVQKLESRQQEKLKKGIRVLSKERYEQVIEMYRHFAVVQ | not soluble
